The nature of the data set: yeast display, Sf9 membrane polyspecificity reagent, FACS + sequencing; frameworks hold sequencing errors. The procedure, abridged: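 Galactose induction of a Saccharomyces cerevisiae BJ5465 synthetic nanobody display library ran 36–48 hours. The cells were then stained for 1 hour at 4 °C with 10% biotinylated, detergent-solubilized Sf9 membrane reagent, pulled down on streptavidin microbeads and FACS-sorted into low and high (top ~1%) gates on expression and reagent-binding fluorescence. Labels for polyreactivity follow the gate of origin.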
“QVKLVESGGGLDQAGGSLRLSCSASRSTFWHYAMGWYRQAPGKERELVASISGRGTSTYYADSVKGRFTISRDNAKNTVFFQMNSLKPEDTAVYYCAATKWFGAFDYWGQGTQVTVSS”: the “polyreactivity (PSR sort gate)” value is listed as “low polyreactivity”. Consider “QVQLVESGGGLVQAGGSLRLSCAASGFIFYRYAMGWYRQAPGKERELVAAISYSGGSTYYADSVKGRFTISRDNAKNTVYLQMISLKPEDTAVYYCAAGSKYRYDYWGQGTQVTVSS”, for which the “polyreactivity (PSR sort gate)” value was “high polyreactivity”. Next, “QVQLVESGGGLVQAGGSLRLSCAASGSTLDTNAMGWYRQAPGKERELVAVIDSGGTTNYADSVKGRFTISRDNAKNTVYLQMNSLKPEDTAVYYCAADYAYFGYWFEGYDYWGQGTQVTVSS”: “low polyreactivity”. Take “QVHLVESGGGLVQAGGSLRLSCAASGFTYYKYAMGWYRQAPGKEREFVDAITPSGGSTYYADSVKGRFTISRDNAKNTVYLQMNSLKPEDTAVYYCAAYYGTSRWAKMCYWGQGTQVTVSS”: the “polyreactivity (PSR sort gate)” value is “high polyreactivity”.

Turning to “QVQLVESGGGLVQAGGSLRLSCAASGSTIWIYAMGWYRQAPGKERELVAAINWSGGNTYYADSVKGRFTISRDNAKNTVYLQMNSLKPEDTAVYYCAAAFYIYGVEGDYWGQGTQVTVSS”, the “polyreactivity (PSR sort gate)” value is “low polyreactivity”. Next, “QVQLVESGRGLVQAGGSLRLSCAASGRTFAYYAMGWYRQAPGKERELVAGITTGGITNYADSVKGRFTISRDNAKNTVYLEMNRLKPEDTAVYYCAKANLFTYWYPGGNFDSAQSDYWGQGTQVTVSS”: “low polyreactivity”; “QVQLVESGGGLVQAGGSLRLSCAASGSIFRGYAMGWYRQAPGKERELVAVIRRTSGSTYYADSVKGRFTISRDNAKNTVYLQMNSLKPEDTAVYYCNTLRHSSYPSYGYWGQGTQVTVSS”: “high polyreactivity”.

“QVQLVESGGGLVQAGGSLSLSCAASGFTFRWYAMGWYRQAPGKERELVAAISSDDDTSYADSVKGRFTISRDNAKNTVYLQMNSLKPEDTAVYDCAADGYYTLDAYPYGIFWYDYWGQGTQVTVSS”: the “polyreactivity (PSR sort gate)” value is reported as “low polyreactivity”. Consider “QVQLVESGGGLVQAGGSLRLSCAASGLIIPFYAMGWYRQAPGKERELVAAISWSAGSTYYADSVKGRFTISRDNAKNTVYLQMNCLKPEDTAVYYCAATAYYYYDYDYWGQGTQVTVSS”, for which the “polyreactivity (PSR sort gate)” value was “low polyreactivity”.

As to “QVQLVESGGGLVQAGGSLRLSCAASGITFYAYAIGWYRQAPGKERELVAAITSSGGNTYYADSVKGRFTISRDNAKNTVYLQMKSLKPEDTAVYYCNIRRYWWWQMGYWGQGTQVTVSS”, the “polyreactivity (PSR sort gate)” value is given as “high polyreactivity”. Next, “QVQLVESGGGLVQAGGSLRLTCAASGRIFYQYALGWYRQAPGKERELVSSITTSGGNTYYADSVKVRFTISRDNAKNTVYLQMNSLKPEDTAVYYCASRFNWRQWLYEYWGQGTQVSVSS”: “low polyreactivity”; “QVQLVESGGGIVQAGGSLRLSCAASGYTFRGNVMGWYRQAPGKERELVAAISRSGGSTYYADSVKGRFTISRDNAKNTVYLQMYCLKPADTAVHYCAKKPTSTYQQDSPRWSDYWGQGTQVTVSS”: “high polyreactivity”; “QVQLVESGGGLVQAGGSLRLSCAASGFISRNAMGWYRQAPGKQRELVAGITRGGSTNYADSVKGRFTISRDNAKNTVYLHMNSLKPEYTAVYYFATRRRLKGLAYDYWGQGNQVTVSS”: “high polyreactivity”. To “QVQLVESGGGLVQAGGSLRLSCAASGRTLRRYAMGWYRQAPGKERELVAGISRNGGSTYYADSVKGRFTISRDNAKNTVYLQMNSLKPEDTAVYYCNADDKAQSDYWGQGTQVTVSS” belongs “high polyreactivity”; to “QVQLVESGGGLVQAGGSLRLSCAASGSILPGNAMGWYRQAPGKEREFVAAISKSGGRTNYADSVKGRFTISRDNAKNTVYLQMNSLKPEDTAVYYCAARRSTGYGKSNLYNYWGQGTQVTVSS”, “high polyreactivity”. To “QVQLVESGGGLVQAGGSLRLSCAASGFIFLFNAMGWYRQAPGNESELVAAIYDDGSTYYADSVKGRFTLSLDNAKNTVYLHMNSVKPEDTAVYYCAAPRRGRWIRGYLGQGTQVTVSS” belongs “high polyreactivity”; to “QVQLVESGGGLFQAGGSLRLSCAASGGIFSLYAMGWYRQAPGTERELVAVISSTCSTHYADSVKGRFTISRDNAKKTVSLLMNSLKPEDTAVYYCNADARTSRKKFGYWGQGTQVTVSS”, “low polyreactivity”.

Regarding “QVQLVESGGGLVQAGGSLRLSCAASGSIFWLYAMGWYRQAPGKERELVATISSTGSTDYADSVKGRFTISRDNAKNTVYLQMNSLKPEDTAVYYCATDVFYSIFTPSPFEYDYWGQGTQVTVSS”, the “polyreactivity (PSR sort gate)” value is “high polyreactivity”. To “QVQLVESGGGLVQAGVSLRLSCAASGGTFRPYAMGWYRQERGKERELVAAISYTGSTYYADSVKWRFTISRDNAKNTVYLQMNSLKPEDTGVYYCAKDFWYPPRFDYWGQGTQVTVSS” belongs “low polyreactivity”; to “QVQLVESGGGLVQAGGSLRISCAASGSIFPAYDMGWYRQAPGKERELVAAITRGGSTDYADSVNGRFTISRDNAKNTVYLQMNSLKPEDTAVYFCAKRGYYYYHYVSGKPEDYWGQGTQVTVSS”, “low polyreactivity”; to “QVQLVESGGGLVQAGGSLRLSCAASGSILYRYTMGWYRLAPGTERELVAAITKRGGRTYYADSVKGRITISRDNAMNTVYLQMNSLKPEDTAVFYCYALLTGGYQDSYPDDYWGQGTHVTVSS”, “high polyreactivity”. To “QVQLVESGGGLVQAGGSLRLSCAASGFTFGDYAMGWYRQAHGKERELVAAINGRSGSTYYPDSVNGRFTISRDNAKNTVYLQMNSLKPEDTAVYYCATRWRLPSRSNFDYWGQGTQVTLSS” belongs “low polyreactivity”; to “QVQLVESGGVLVQAGGSLRLSCAASGLICVPYSMGWYRQAPGKERELVAAISWRGGITYYADSVKGRFTISRDNAKNNVYLQMNSLKPEDTAVYYCAADGPYTGDGALDYWGQGTQVTVSS”, “high polyreactivity”; to “QVQLVESGGGLVQAGGSLRLSCAASGSTFDYYYMGWYRQAPGKERELVAAISYSGTSTYYADSVKGRFTISRDNAKNTVYLQMNSQKPEDTAVYYCAKVFPDWYWYDYCGQGTQVTVSS”, “low polyreactivity”. Next, “QVQRVESGGGLVQAGGSLRLSCAASGRTFYLNAMGWYRQATGKERQLVAAINRGTRTYYADSVKGRFTISRDNAKNTVYLQMNSVKPEDTAVYYCAAVPRYYYSSSYTMDYWGQGTQVTVSS”: “high polyreactivity”; “QDQLVESVGGLVQAGGSLRLSCAASGLIFYYYDMGWYRQAPGKERELVAAISSRGSSTYYADSVKGRFTISRVNAKNTVYLQMNSLKPEDTAVYYCAADSVSKYFGYDYWGQGTQVTVSS”: “high polyreactivity”; “QVQLVESGGGLVQAGGSLRLSCAASGSNFGANAMGWYRQAPGKEREFVAAISGSGTTTYYADSVKGRFTISRDNAKNTVYLQMNSLKPEDTAVYYCAKTRKAHWLGYWGQGTQVTVSS”: “low polyreactivity”. For “QVQIVESGGGLVQAGGSLRLSCAASGSTFGDNAMGWSRQAPGKERELVAAITRSGGSTYYADSVKGRFTISRDTAKNTVYLHMHSLKPEDTAVYYCNADWYFQYPYDYGGQGTQVTVSS”, the “polyreactivity (PSR sort gate)” value is reported as “low polyreactivity”. To “QVQLVESGGGLVQAGGSLRLSCAASGFTFRYYAMGWYRQAPGKERELVASINWSGGSTYYADSVKGRFTISRDNAKNTVYFQMNSLKPEDTAVYYCAADSIWGHYFARFDYWVQGTQVTVSS” belongs “high polyreactivity”; to “QVQLVESGGGLVQAGGSLRLTCAASGITFTSYVMGWYRQAPGKERELVAAIRWSGGRTYYADSVKGRFTISRDNAKNSVYLQMNSLKPEDTAVYYCNRVTRSHVDYWGQGTQVTVSS”, “high polyreactivity”; to “QVQLVESGGGLVQAGGSLRLSCAASGIIFLENAMGWYRQAPGKEREFVAAISRSGGITYYADSVKGRFTISRDNAKNTVYLQMNSLKPEDTAVYYCAAVGRDRYRHSPQPLYDYWGQGTQVTVSS”, “low polyreactivity”. Next, “QVQLVESGGGLGQAGGSLRLSCAASGSIFWGNAMGWYRQAPGKESELVACIRNSGTSTYYADSVKWRFTISRDNAKNTVYLKMNSLKPVDTAVYYCAAADGRQYSRYYWRGHDYWGQGTQVTVSS”: “low polyreactivity”; “QVQLVESGGGLVQAGGSLRLSCAASGSIFSSNTMGWYRPAPGKERELVAAITSGGGTYYADSVKGRFTISRDNAKNTVYLQMNSLKPEDTAVYYCAAQRVYKSSPSYDYWGQGTQVTVSS”: “low polyreactivity”; “QVNLVESGGGLVQAGGSLRLSCAAYGRTFRTNAMRCNRQEPGKERELFAAITYSGDSTYYADSVKGRFTISRDNEKNTVYLQMNSLKPEDTAVYYCNARLLSGPGYDYWRQGTQVTVSS”: “low polyreactivity”. To “QVQLVESGGGLVQAGGSLRLSCAASGGIFRKYVMGWYRQAPGKERELVAAISTSGGSTYYADSVKGRFTISRDNAKNSVYLQMNSLKPEDTAVYYCAADILYFYGPRVFEFNYWGQGTQVTVSS” belongs “high polyreactivity”; to “QVQLVESGGGLVQAGGSLRLSCAASGRIFRGYAMGWYRQAPGKERELVAAISGSGGSTYYADSVKGRFTISRDNAKNTVYLQMNSLKPEDTAVYYCAADQQSTGDWAGDYWGQGTQVTVSS”, “low polyreactivity”; to “QVQLVESGGGLDQAGGSLRLSCAASGSIIWYYAMGWYRQAPGKESELVASISRRGGSTYYADSVKGRFTISRDNAKYTVYLQMNSLKPEDTAVYYCAAYSRTTGSTVQGTYDYWGQGTQVSVSS”, “low polyreactivity”.

Consider “HVQLVESGGGLVQAGGSLRLSCAASGRTLYNNAMGWYRQAPGKERELVAAISSRGGSTRYADSVKGRFTISRDNAKNTVYLQMNSLKPEDTAVYSGAKRSINRDGDYWGQGTQVTVSS”, for which the “polyreactivity (PSR sort gate)” value is listed as “high polyreactivity”. Next, “QVQLVESGGGLVQAGGSLRLSCAASGFIFDFYTIGWYRQAPGKEWELVAAITNGGSTYYADSVKGRFTISRVNAKNTVYLQMNSLKPEDTAVYYCAAYYRSRHHGYDSWGQGTQVTVSS”: “low polyreactivity”; “QVQLVESGGGLVQAGGSLRLSCGASGYIFDRYPMGWYRQAPGKEREVVASISRRGGSTYYADSVKGRFTISRDNAKNTVYLQMNSLKPEATAVYYCAAKWPFRRSAVVRYDYWGQGTQVTVSS”: “high polyreactivity”.

Regarding “QVQLVESGGGLVQAGGSLRLSCAASGRTSVIYAMGWYRQAPGKERELVASIRRGGSTSYADSVKGRFTISRDNAKNTVYLQMNSLIPEDTAVYYCAATLVRRARSGPMGYWGQGTQVTVSS”, the “polyreactivity (PSR sort gate)” value was “high polyreactivity”.
